Consider one molecule from US20240342244A1, “Isthmin Protein Therapeutics for the Treatment of Non-Alcoholic Fatty Liver Disease” (The Board of Trustees of the Leland Stanford Junior …, priority 2021, published 2024).

This experiment relates to DIO mice. Put plainly: Therapeutic ISM1, Metformin or combined administration for 21 days in DIO mice. It counts as in vivo, mouse. Particulars: daily for 21 days; compared with vehicle. Here is the method:
Therapeutic ISM1 recombinant protein administration in vivo. All pharmacologic studies using recombinant ISM1 protein were performed in mice with established diet-induced obesity or non-alcoholic fatty liver disease (NAFLD). For all experiments, male C57BL/6J mice purchased from Jax were fed either a high-fat diet (#D12492, Research Diets) or a NAFLD diet (#D09100310, Research Diets) prior to ISM1 protein injections. In all experiments, mice were mock injected with saline for three days prior to protein or drug injections to prevent stress-induced weight loss. Mice were I.P. injected with vehicle (saline) or indicated doses of ISM1 protein diluted in saline. For the 14-day experiments in NAFLD mice, 7-weeks old mice were fed with NAFLD diet for 3 weeks and then mock injected with saline for 3 days prior to protein injections. The induction of lipid accumulation with NAFLD diet was verified by the significant increase in hepatic lipid levels compared with mice on chow diet at the same time point. NAFLD mice were then daily I.P. injected with either vehicle (saline containing 5% DMSO and 10% Kolliphor) or indicated doses of ISM1 protein (500 μg/kg or 5 mg/kg) or with FXR agonist (30 mg/kg, GW4064, Sigma-Aldrich, #G5172) diluted in vehicle (saline containing 5% DMSO and 10% Kolliphor). For the 21-day experiments in HFD mice, mice were mock injected with saline for three days prior to protein injections. Mice were then daily I.P. injected with either vehicle (saline) or 5 mg/kg of ISM1 protein diluted in saline. Metformin (100 mg/kg, Sigma, #317240) was diluted in saline and daily administered by oral gavage. All groups received control injections by I.P. and oral gavage. At the end of the experiments, mice and tissue weights were recorded. Tissues and plasma were collected and frozen for further analyses.
Glucose tolerance and insulin tolerance tests. For glucose tolerance tests, mice were fasted overnight and I.P. injected with glucose at 2 g/kg body weight. Blood glucose levels were measured at 0, 15, 30, 45, 60, 90 and 120 mins. For insulin tolerance tests, mice were fasted for 2 h, and I.P. injected with 0.75 U/kg insulin. Blood glucose levels were measured at 0, 15, 30, 45, 60, 90 and 120 mins.

B1: ISM1: recombinant mouse ISM1 protein with a C-terminal myc-his tag generated in mammalian HEK 293 Expi cells (protein, UniProt A2ATD1 30-454, looked up)
Isthmin-1: SDRQDAAAGNNNLNLESDSTSETSFPLSKEAPEEHQVVHQPFPRQRFPPETGHPSLQRDGPRSFLLDLPNFPDLSKADINGQNPNIQVTIEVVDGPDSEAEKDQHPENKPSWSLPAPDWRAWWQRSLSLARTNSGDQDDKYDSTSDDSNFLSVPRGWDRPAPGHRTFETKEQPEYDSTDGEGDWSLWSVCSVTCGNGNQKRTRSCGYACIATESRTCDRPNCPGIEDTFRTAATEVSLLAGSEEFNATKLFEVDMDSCERWMSCKSEFLKKYMHKVINDLPSCPCSYPTEVAYSTADIFDRIKRKDFRWKDASGPKEKLEIYKPTARYCIRSMLSLESTTLAAQHCCYGDNMQLITRGKGAGTPNLISTEFSAELHYKVDVLPWIICKGDWSRYNEARPPNNGQKCTESPSDEDYIKQFQEAREY
modifications: C-terminal myc-His tag
notes: recombinant mouse ISM1 protein with a C-terminal myc-his tag generated in mammalian HEK 293 Expi cells
For B1, the fasting blood glucose entry is reported as “lower” and the “glucose tolerance (GTT)” value is on record as “comparable effects on improving glucose tolerance”.
